We go through one molecule from patent publication US20180111972A1 (Stanford University, published 2018).

Test [1] has as its target T1, PDGFRβ-His (residues 1-314 of PDGFR-β with C-terminal hexahistidine tag) (human, UniProt P09619 33-314).
T1 construct: range 1-314; Monovalent form, expressed in FreeStyle 293-F cells; also called PDGRβ-His; PDGFR-His
In words: yeast surface display titration, flow cytometry.

Test [2] has as its target T2, VEGFR2-His (residues 1-764 of VEGFR2, Ig-like domains 1-7, with hexahistidine tag) (human, UniProt P35968 20-764).
T2 construct: range 1-764; Monomeric form, expressed in FreeStyle 293-F cells; also called VEGFR-His
The test can be described thus: yeast surface display titration, flow cytometry.

Test [3] deals with T1, PDGFRβ-His (residues 1-314 of PDGFR-β …). The test can be described thus: yeast surface display titration, flow cytometry. This is another data set of the same source.
Test [4] concerns the target T2, VEGFR2-His (residues 1-764 of VEGFR2, …). The test can be described thus: yeast surface display titration, flow cytometry. The source holds these as a separate data set. In general terms: A flow cytometer gives signals particle by particle.
The target of test [5] is T1, PDGFRβ-His (residues 1-314 of PDGFR-β …). In words: yeast surface display titration, flow cytometry. The protocol: (§1) Cells were incubated in large enough volumes to avoid ligand depletion and appropriate time to reach equilibrium. During the last hour of incubation, yeast were incubated with 1:250 dilution of chicken anti-c-Myc (Invitrogen) in PBSA. […] Yeast were washed, pelleted, and resuspended in PBSA immediately before analysis by flow cytometry using BD FACSCalibur or BD Accuri C6. Flow cytometry data were analyzed using FlowJo (v7.6.1 and v10, Treestar) or BD Accuri C6 software. Statistical analysis was performed using GraphPad Prism 6.
The source holds these as a separate data set.

Test [6] addresses T2, VEGFR2-His (residues 1-764 of VEGFR2, …). The test can be described thus: yeast surface display titration, flow cytometry. The method, then:
as §1
This is another data set of the same source.

Test [7] addresses T1, PDGFRβ-His (residues 1-314 of PDGFR-β …). The test can be described thus: yeast surface display, flow cytometry titration of PDGFRβ-His (panel 'PDGFRβ binding'). The protocol:
as §1

Test [8] deals with T2, VEGFR2-His (residues 1-764 of VEGFR2, …). In words: yeast surface display, flow cytometry equilibrium titration of VEGFR2-His, normalized fluorescence. The protocol: as §1
For test [9], the target named is T3, soluble PDGFRβ (Fc or His format not stated for the experiment) (human, UniProt P09619 33-532).
T3 construct: extracellular domain
T3 sequence (P09619 33-532): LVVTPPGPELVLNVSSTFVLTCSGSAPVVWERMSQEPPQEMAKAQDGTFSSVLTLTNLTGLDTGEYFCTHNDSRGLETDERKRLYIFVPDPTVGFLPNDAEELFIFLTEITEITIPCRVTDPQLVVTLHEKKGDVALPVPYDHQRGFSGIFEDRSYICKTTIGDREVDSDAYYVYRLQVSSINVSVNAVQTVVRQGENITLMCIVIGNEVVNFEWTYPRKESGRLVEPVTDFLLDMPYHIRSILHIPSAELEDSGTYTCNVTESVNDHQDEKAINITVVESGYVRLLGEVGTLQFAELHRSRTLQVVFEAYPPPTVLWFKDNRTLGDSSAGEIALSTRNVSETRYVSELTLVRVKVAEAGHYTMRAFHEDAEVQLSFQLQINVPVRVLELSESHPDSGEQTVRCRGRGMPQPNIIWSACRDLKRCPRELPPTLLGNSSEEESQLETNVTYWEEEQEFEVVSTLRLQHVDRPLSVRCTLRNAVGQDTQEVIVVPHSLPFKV
In words: binding titration (FIG. 12); taken as yeast display, receptor format not stated; to PDGFR; receptor format not stated.

Test [10] addresses T4, soluble VEGFR2 (Fc or His format not stated for the experiment) (human, UniProt P35968 20-764).
T4 construct: extracellular domain
The test can be described thus: binding titration (FIG. 12); taken as yeast display, receptor format not stated; to VEGFR; receptor format not stated.

In test [11] the target is T3, soluble PDGFRβ (Fc or His format not …). In words: yeast surface display, flow cytometry titration of soluble receptor; panel 'PDGFR binding', Fc or His form not given.
Test [12] addresses T1, PDGFRβ-His (residues 1-314 of PDGFR-β …). The test can be described thus: yeast surface display, flow cytometry equilibrium titration of PDGFRβ-His (panel 'PDGFR-His'), normalized fluorescence. The method, then: as §1

Read-outs that look alike come from different tables or passages of the source.

T2 sequence (P35968 other isoform, or with tags, fused parts or gaps limits assumed, form in doubt): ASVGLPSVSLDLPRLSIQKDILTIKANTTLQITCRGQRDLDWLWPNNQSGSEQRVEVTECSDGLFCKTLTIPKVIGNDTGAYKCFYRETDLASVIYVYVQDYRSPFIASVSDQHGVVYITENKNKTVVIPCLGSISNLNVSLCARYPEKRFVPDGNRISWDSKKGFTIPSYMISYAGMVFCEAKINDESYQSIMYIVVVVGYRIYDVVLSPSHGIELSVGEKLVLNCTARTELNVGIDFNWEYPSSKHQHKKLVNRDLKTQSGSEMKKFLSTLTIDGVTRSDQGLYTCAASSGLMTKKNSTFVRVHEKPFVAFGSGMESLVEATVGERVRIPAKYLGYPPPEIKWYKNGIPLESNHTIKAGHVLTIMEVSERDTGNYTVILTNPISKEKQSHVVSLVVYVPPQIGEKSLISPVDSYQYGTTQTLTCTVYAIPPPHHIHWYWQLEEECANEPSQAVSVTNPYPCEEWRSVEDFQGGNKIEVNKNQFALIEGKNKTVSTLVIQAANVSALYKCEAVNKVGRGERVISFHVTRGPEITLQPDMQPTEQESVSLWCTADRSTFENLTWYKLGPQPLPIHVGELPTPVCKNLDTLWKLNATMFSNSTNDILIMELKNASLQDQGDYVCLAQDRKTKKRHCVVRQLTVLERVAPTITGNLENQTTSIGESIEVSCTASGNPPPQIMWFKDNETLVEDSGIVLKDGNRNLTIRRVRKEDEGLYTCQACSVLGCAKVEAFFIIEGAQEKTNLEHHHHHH
T1 sequence (P09619 other isoform, or with tags, fused parts or gaps limits assumed, form in doubt): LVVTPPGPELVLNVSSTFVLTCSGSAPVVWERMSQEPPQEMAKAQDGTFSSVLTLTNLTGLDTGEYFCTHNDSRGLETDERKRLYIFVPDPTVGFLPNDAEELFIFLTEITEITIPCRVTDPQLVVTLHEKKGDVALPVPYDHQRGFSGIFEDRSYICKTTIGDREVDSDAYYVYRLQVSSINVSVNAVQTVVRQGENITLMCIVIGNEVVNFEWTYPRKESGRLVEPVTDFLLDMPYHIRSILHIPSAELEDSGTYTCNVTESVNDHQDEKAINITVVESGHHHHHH
T4 sequence (P35968 20-764): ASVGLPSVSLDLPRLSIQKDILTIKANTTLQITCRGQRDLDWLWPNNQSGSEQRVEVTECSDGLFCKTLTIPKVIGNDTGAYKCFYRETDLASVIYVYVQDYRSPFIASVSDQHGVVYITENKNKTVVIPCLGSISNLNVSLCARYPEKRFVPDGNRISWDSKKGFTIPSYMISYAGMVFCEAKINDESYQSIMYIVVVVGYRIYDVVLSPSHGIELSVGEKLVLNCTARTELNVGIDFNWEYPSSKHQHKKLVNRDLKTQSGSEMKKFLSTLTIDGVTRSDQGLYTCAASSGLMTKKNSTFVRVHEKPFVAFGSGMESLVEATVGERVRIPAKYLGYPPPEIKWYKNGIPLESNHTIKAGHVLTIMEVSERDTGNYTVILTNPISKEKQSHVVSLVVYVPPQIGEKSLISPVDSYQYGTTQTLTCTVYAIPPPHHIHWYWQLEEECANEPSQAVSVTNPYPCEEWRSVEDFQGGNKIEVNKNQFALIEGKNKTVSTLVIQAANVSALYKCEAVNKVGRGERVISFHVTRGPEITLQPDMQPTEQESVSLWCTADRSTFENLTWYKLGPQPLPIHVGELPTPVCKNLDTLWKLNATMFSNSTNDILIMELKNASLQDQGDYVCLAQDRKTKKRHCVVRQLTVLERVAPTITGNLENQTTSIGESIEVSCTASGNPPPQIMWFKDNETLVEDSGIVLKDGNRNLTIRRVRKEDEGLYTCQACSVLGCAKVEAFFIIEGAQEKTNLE

B1: PVAM (4-22 RF), yeast-displayed (designed binder)
chain: IAEPAMIAECHPIETLVDILQEYPDEIGYIFKPSCVPLMRCGGCCNNRNVQCRPTEESNITMQIMRIKPHRGQHIGEMSFLQHNKCRCETVAAGSTSGSGKSSEGKGEVVKFMDVYQRSYCKTRTEVFEISRRLIDRTNANFLVWPPCVEVQRCSGCCNHEGLECVPTQVQLRPVQVRKIEFVRKKPIFKKATVTLEDHLACECRPKKD
notes: Combines K87R and I182F with F20L, E28G, Q71R and D160H
Regarding B1, the “fold improvement compared to PV6” value amounted to 1100 fold in test [1] and 200 fold in test [2]. In addition, the Kd (as a rule, a measure of binding affinity in units of concentration) in [3] came out at 0.39 nM; in test [4], 1.1 nM; in test [5], 0.39 nM; in test [6], 1.1 nM; in test [9], 0.21 nM; in test [10], 2.1 nM. Also, the half-maximal effective concentration (EC50 (read off the curve)) (in general, the midpoint of the concentration-response curve) was ~0.3 nM in [7], ~1 nM in [8], ~0.2 nM in [11] and ~0.4 nM in test [12].
